Assay results reported in patent US20250074980A1 (BRIGHAM AND WOMEN S HOSPITAL, published 2025).

T1: His-tagged CEACAM1 (human, UniProt P13688 35-428)
T1 construct: 45 kDa SPR analyte; also called CEACAM1-HIS; CEACAM1 analyte
T1 sequence: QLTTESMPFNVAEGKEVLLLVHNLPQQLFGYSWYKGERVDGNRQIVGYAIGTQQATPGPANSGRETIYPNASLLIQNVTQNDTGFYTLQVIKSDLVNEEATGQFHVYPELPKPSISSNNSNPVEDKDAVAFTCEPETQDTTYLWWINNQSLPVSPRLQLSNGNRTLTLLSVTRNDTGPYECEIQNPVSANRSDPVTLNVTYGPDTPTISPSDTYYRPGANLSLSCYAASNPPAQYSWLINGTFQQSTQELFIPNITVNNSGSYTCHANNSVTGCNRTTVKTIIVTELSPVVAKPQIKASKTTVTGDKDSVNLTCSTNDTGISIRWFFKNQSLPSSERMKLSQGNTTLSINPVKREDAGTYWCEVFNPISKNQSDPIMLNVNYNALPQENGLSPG


Tests used:
[1] = molecular target: T1, His-tagged CEACAM1; assay: SPR single-cycle, purified IgG captured
Procedure, shortened: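 On a Biacore T200, purified IgG was captured on a Series S Protein A chip, and His-tagged CEACAM1 was passed over it as the analyte in single-cycle kinetics surface plasmon resonance at 25° C in HBS-P+ (pH 7.4). Reference-channel and blank-run signals were subtracted before fitting kon, koff and Kd, with relative KD calculated against the parent antibody assayed in the same experiment.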

[2] = molecular target: T1, His-tagged CEACAM1; assay: SPR single-cycle, supernatant IgG captured
Protocol: In order to assess the binding of the humanized, affinity matured reformatted lead IgGs, single-cycle kinetics analysis was performed on crude supernatants using a Biacore T200 running Biacore T200 Control Software V2.0.1 and Biacore T200 Evaluation Software V3.0. Antibodies were diluted in HBS-P+ to a final concentration of 0.5 μg/ml. At the start of each cycle, antibodies were loaded onto Fc2, Fc3 and Fc4 of the Protein A chip. IgGs were captured at a flow rate of 10 μl/min to give an immobilisation level (RL) of ˜100 RU (a level calculated to obtain a Rₘₐₓ of ˜50-150 RU once the analyte is bound). The surface was then allowed to stabilize. Single-cycle kinetics data was obtained with CEACAM1 as the analyte at a flow rate of 80 μl/min to minimize any potential mass transfer effects. Multiple repeats with the parent (VH1/Vκ8 S29A) antibody were performed to check the stability of the surface and analyte over the kinetic cycles. The signal from the reference channel Fc1 (no antibody) was subtracted from that of Fc2, Fc3 and Fc4 to correct for differences in non-specific binding to the reference surface. A three point, two-fold dilution range from 70 nM to 280 nM CEACAM1 without regeneration between each concentration was used. The signal from each antibody blank run (no CEACAM1) was subtracted to correct for differences in surface stability. The association phase for the three injections of increasing concentrations of CEACAM1 was monitored for 80 seconds each time and a single dissociation phase was measured for 150 seconds following the last injection of CEACAM1. Regeneration of the Protein A surface was conducted using two injections of 10 mM glycine-HCL pH 1.5 followed by a stabilization period of 250 seconds.

[3] = molecular target: T1, His-tagged CEACAM1; assay: SPR single-cycle, supernatant IgG captured; remark: listed apart in the source
Procedure, shortened: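 His-tagged CEACAM1 served as analyte over Protein A-captured IgG in single-cycle surface plasmon resonance on a Biacore T200, performed at 25° C in HBS-P+ (pH 7.4). The IgG was taken from supernatants of transiently PEI-transfected HEK EBNA cells grown in 6-well plates and harvested 5-7 days later. Relative KD, alongside fitted Kon, koff and Kd, was referenced to the parent antibody run in the same experiment.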

| Kd [1] | koff [1] | kon [1] | relative KD to parent [1] | Kd [2] | koff [2] | kon [2] | relative KD to parent [2] | Kd [3] | koff [3] | kon [3] | relative KD to parent [3] | Binder |
| --- | --- | --- | --- | --- | --- | --- | --- | --- | --- | --- | --- | --- |
| 69 nM | 0.0065 s⁻¹ | 95000 M⁻¹ s⁻¹ | 6.9 | 77 nM | 0.0072 s⁻¹ | 93000 M⁻¹ s⁻¹ | 7.3 | – | – | – | – | 8H3_9B3/CP08E05 (antibody, IgG4, V domains shown, IgG4 (S241P), kappa) VH: EVQLLESGGGLVQPGGSLRLSCAASGFTFNAHAISWVRQAPGKGLEWVATISSGGTYTYYPDSVKGRFTISRDNSKNTLYLQMNSLKAEDTAMYYCARHDFDYFPYWFAHWGQGTLVTVSS VL: EIVLTQSPATLSLSPGERATLSCRANSAVSYMYWYQQKPGQAPRPWIYLTSNRATGVPARFSGSGSGTDYTLTISSLEPEDFAVYYCQQWTTNPPTFGQGTKLEIK |
| 59 nM | 0.0056 s⁻¹ | 95000 M⁻¹ s⁻¹ | 8 | 70 nM | 0.0063 s⁻¹ | 90000 M⁻¹ s⁻¹ | 8 | – | – | – | – | 8H3_9B3/CP08F05 (antibody, IgG4, V domains shown, IgG4 (S241P), kappa) VH: EVQLLESGGGLVQPGGSLRLSCAASGFTFNAHAISWVRQAPGKGLEWVATISSGGTYTYYPDSVKGRFTISRDNSKNTLYLQMNSLKAEDTAMYYCARHDFDYFPYWFAHWGQGTLVTVSS VL: EIVLTQSPATLSLSPGERATLSCRANSAVSYMYWYQQKPGQAPRPWIYLTSNRATGVPARFSGSGSGTDYTLTISSLEPEDFAVYYCQQWTSNPPTFGQGTKLEIK |
| 90 nM | 0.0096 s⁻¹ | 110000 M⁻¹ s⁻¹ | 5.3 | – | – | – | – | 97 nM | 0.01 s⁻¹ | 110000 M⁻¹ s⁻¹ | 5.7 | CP09B03/CP08E05 (antibody, IgG4, V domains shown, IgG4 (S241P), kappa) VH: EVQLLESGGGLVQPGGSLRLSCAASGFTFNAHAISWVRQAPGKGLEWVATISSGGTYTYYPDSVKGRFTISRDNSKNTLYLQMNSLKAEDTAMYYCARHDFDYDAAWFAYWGQGTLVTVSS VL: EIVLTQSPATLSLSPGERATLSCRANSAVSYMYWYQQKPGQAPRPWIYLTSNRATGVPARFSGSGSGTDYTLTISSLEPEDFAVYYCQQWTTNPPTFGQGTKLEIK |

Second part, the binder before the results:

| Binder | Kd [1] | koff [1] | kon [1] | relative KD to parent [1] | Kd [2] | koff [2] | kon [2] | relative KD to parent [2] | Kd [3] | koff [3] | kon [3] | relative KD to parent [3] |
| --- | --- | --- | --- | --- | --- | --- | --- | --- | --- | --- | --- | --- |
| 8H3_9B3/Vκ8 S29A (antibody, IgG4, V domains shown, IgG4 (S241P), kappa) VH: EVQLLESGGGLVQPGGSLRLSCAASGFTFNAHAISWVRQAPGKGLEWVATISSGGTYTYYPDSVKGRFTISRDNSKNTLYLQMNSLKAEDTAMYYCARHDFDYFPYWFAHWGQGTLVTVSS VL: EIVLTQSPATLSLSPGERATLSCRANSAVSYMYWYQQKPGQAPRPWIYLTSNRATGVPARFSGSGSGTDYTLTISSLEPEDFAVYYCQQWSSNPPTFGQGTKLEIK | 67 nM | 0.0062 s⁻¹ | 92000 M⁻¹ s⁻¹ | 7.1 | 77 nM | 0.0069 s⁻¹ | 90000 M⁻¹ s⁻¹ | 7.2 | – | – | – | – |
| CP09C02/CP08F05 (antibody, IgG4, V domains shown, IgG4 (S241P), kappa) VH: EVQLLESGGGLVQPGGSLRLSCAASEFTFSDHAMSWVRQAPGKGLEWVATISSGGTYTYYPDSVKGRFTISRDNSKNTLYLQMNSLKAEDTAMYYCARHGFDYDAAWFAYWGQGTLVTVSS VL: EIVLTQSPATLSLSPGERATLSCRANSAVSYMYWYQQKPGQAPRPWIYLTSNRATGVPARFSGSGSGTDYTLTISSLEPEDFAVYYCQQWTSNPPTFGQGTKLEIK | 95 nM | 0.01 s⁻¹ | 110000 M⁻¹ s⁻¹ | 5 | – | – | – | – | 100 nM | 0.011 s⁻¹ | 110000 M⁻¹ s⁻¹ | 5.5 |
| 8H3_9C2/CP08F05 (antibody, IgG4, V domains shown, IgG4 (S241P), kappa; also called 8H3_9C2/CPO08_F05) VH: EVQLLESGGGLVQPGGSLRLSCAASEFTFSDHAMSWVRQAPGKGLEWVATISSGGTYTYYPDSVKGRFTISRDNSKNTLYLQMNSLKAEDTAMYYCARHGFDYFPYWFAHWGQGTLVTVSS VL: EIVLTQSPATLSLSPGERATLSCRANSAVSYMYWYQQKPGQAPRPWIYLTSNRATGVPARFSGSGSGTDYTLTISSLEPEDFAVYYCQQWTSNPPTFGQGTKLEIK | 76 nM | 0.0055 s⁻¹ | 73000 M⁻¹ s⁻¹ | 6.3 | 93 nM | 0.0061 s⁻¹ | 66000 M⁻¹ s⁻¹ | 6 | – | – | – | – |
